Reference: patent publication US20220325261

System: beta-catenin

How did the “tyrosine phosphorylation of immunopurified beta-catenin (Western blot)” value turn out when GST-PTPRS D1 was run?
Its value is “decreased tyrosine phosphorylation of immunopurified beta-catenin in the presence of GST-PTPRS D1 compared to GST alone”.
